Source: paper PMC11626150 (Proceedings of the National Academy of Sciences of the …, 2024)
Numbering of substitutions follows the chain as printed. Numbers in names are those of the source.

Key:
Assay in all cases: ELISA
[1] = biological target: Other eight antigen mutants (E2 mutants preincubated with 8C11)
[2] = biological target: T1, HEV genotype 1 E2(I) dimer protein (hepatitis E virus genotype 1 (human HEV), UniProt P29326)
[3] = biological target: HEV genotype 4 E2(IV) (Hepatitis E virus genotype 4, swine …, UniProt D3VV84, strain)
[4] = biological target: T1, HEV genotype 1 E2(I) dimer protein; remark: listed apart in the source

B1: neutralizing monoclonal antibody 8H3 (antibody, V domains shown)
VH: QVQLKESGPGLVAPSQSLSITCTVSGFSLIGYGVNWVRQPPEKGLEWLGMIWGDGSTDYNSALKSRLSITKDNSKSQVFLKMNSLQTDDTARYYCAMGVRPDPFDYWGQGTLVTVSA
VL: NIMMTQSPSSLAVSAGEKVTMSCKSSQSVLYSSNQKNYLAWYQQKPGQSPKLLIYWASARESGVPDRFTGSGSGTDFTLTINSVQTEDLAVYYCHQYLSSYTFGGGTKLEIK
With B1 the fold increase in synergy (8H3 binding with 8C11 pre-bound) [1] was 10 fold, the ET50 [2] was 4660 dilution fold and the “ET50 (after a non-related mAb, anti-HPV mAb A12A3)” value [2] was 3030 dilution fold. B1: binds [3].

B2: neutralizing monoclonal antibody 8C11 (antibody, V domains shown)
VH: QVTLKESGPGILQPSQTLSLTCSFSGFSLSTSGMGVGWIRQPSGKGLEWLAHIWWDDVKRYSPALKSRLTISKDTSSSQLFLKIASVDTADTATYYCARIKSVITTGDYALDYWGQGTSVAVSS
VL: DIQMTQSPASLSVSVGETVTITCRASEIIYSNLAWYQQKQGKSPQLLVYSATNLAEGVPSRFSGSGSGTQYSLKINSLQSEDFGSYYCQHFWGNPWTFGGGTKLEIK
For B2, the ET50 [2] was 172000 dilution fold, the “ET50 (after a non-related mAb)” value [2] was 188000 dilution fold and the binding result [3] was “binds”.

B3: 8C11 mAb mutant D88A (heavy chain) (antibody, V domains shown)
VH: B2 VH with D88A
VL: B2 VL
B3: binds [4].

B4: 8C11 mAb mutant S67A (heavy chain) (antibody, V domains shown)
VH: B2 VH with S67A
VL: B2 VL
B4: binds [4].

B5: 8C11 mAb mutant K66A (heavy chain) (antibody, V domains shown)
VH: B2 VH with K66A
VL: B2 VL
B5: binds [4].
